Literature values, collected in US12233109B2, “Long-acting GLP-1r agonist as a therapy of neurological and neurodegenerative conditions” (The Johns Hopkins University, priority 2015, dated 2025).

Conditions: in vivo

**Q.** For “Albiglutide: dipeptidyl peptidase-4-resistant glucagon-like peptide-1 dimer fused to human albumin”, which half-life is on record?
**A.** four to seven
